Assays:
Format in all cases: cell-based
[1] = target: T1, MCF-7 cells (Homo sapiens); experiment: TRAIL DISC activation in MCF-7 cells; conditions: FIG. 5B
T1 construct: the breast tumour cell line MCF-7 signals to apoptosis via TRAIL-R1; endogenous in cells; host or cells: MCF-7 (clone F43)
Description: Ramos and Jurkat T cells (clone E6-1) were cultured as described (MacFarlane et al, 2005 ibid.). The breast tumour cell line, MCF-7 (clone F43) was cultured as described previously (MacFarlane et al., 2000 J. Cell Biol. 148, 1239-1254). Cells were cultured for either 4 h (Ramos and Jurkat) or 6 h (MCF-7) with His-TRAIL (MacFarlane et al, 1997 J Biol Chem 272, 25417-25420), HGS-ETR1 or HGS-ETR2 (Human Genome Sciences), or a mutant form of His-TRAIL (MacFarlane et al, 2005 ibid.). Samples were analyzed for apoptosis, Western blotting, or TRAIL DISC activation as described (MacFarlane et al, 2005 ibid.; MacFarlane et al. 2002 Oncogene 21, 6809-6818). Mutants of His-TRAIL (residues 95-281) were generated using the Quik-Change site-directed mutagenesis kit (Stratagene, Calif.), confirmed by DNA sequencing, expressed in E. coli and purified as described (MacFarlane et al, 1997 ibid.). […] After 40 h of transfection the cells were collected and total TRAIL-R1 or TRAIL-R2 levels assessed. Where indicated, RNAi transfected MCF-7 cells were either left untreated or exposed to wt-TRAIL and apoptosis assessed by the extent of Bax activation, determined using the conformation specific Bax MAb, clone 3 (Dewson et al, 2003 Oncogene vol 22 pp 2643-54).
Apoptosis was quantified by measuring the processing of Caspase-8, Caspase-7 and PARP by Western blot analysis. […]

TRAIL-R1 (DR4) = target: T2, TRAIL-R1 (DR4) (Homo sapiens, UniProt O00220); experiment: TRAIL-R1 selective apoptotic signalling (Ramos versus Jurkat cells); conditions: from apoptosis in Ramos (TRAIL-R1) and Jurkat (TRAIL-R2) cells
T2 construct: Ramos and Jurkat cells, which signal predominantly through TRAIL-R1 and TRAIL-R2, respectively; endogenous in cells; host or cells: Ramos cells (Jurkat cells as TRAIL-R2 comparison)
Source text: Another test involves the assay of the effect in R1- (DR4-) only cells. This is the preferred test for DR4 selectivity as discussed herein. Preferably the ligand is applied to an R1-only signalling cell. Preferably the cell is a Ramos cell. Preferably the read-out is functional activity, preferably death-inducing activity (apoptosis). This is crucial to the test—mere binding is not as robust an indicator as functional induction of death. Thus, preferably a DR4 selective ligand according to the present invention induces death in a DR4 only signalling cell, such as a Ramos cell.
Ramos, an Epstein-Barr virus-negative Burkitt's lymphoma cell line, and Jurkat T cells (clone E6-1) were cultured as described (MacFarlane et al (2005 Cell Death and Differentiation vol 12 pages 773-782)). Blood samples were obtained from CLL patients, with patient consent and local ethical committee approval and CLL cells purified as described (MacFarlane et al (2002 Oncogene 21, 6809-6818). Cells were incubated for 16 h with depsipeptide (10 nM), provided by Dr. E. Sausville (NCI, USA). Cells were then cultured for a further 6 h with either HGSETR1 or HGS-ETR2, agonistic mAbs to TRAIL-R1 or -R2, respectively (Human Genome Sciences, Rockville, Md.), His-TRAIL-LE (a recombinant TRAIL with low endotoxin—Alexis Corporation, Nottingham, UK), His-TRAIL, a similar form of human recombinant TRAIL (MacFarlane et al (1997 J Biol Chem 272, 25417-25420)) but not further purified to reduce endotoxin levels or a mutant form of His-TRAIL as described (MacFarlane et al., 2005 ibid.). Cell lines were also pre-incubated for 30 min with a TRAIL-R1 blocking Ab and a TRAIL-R2 neutralizing Ab from Alexis and R&D systems, respectively, prior to exposure to TRAIL. Freshly isolated cells from patients with MCL were isolated, purified and incubated with different forms of TRAIL as described above for CLL cells. Samples were either analyzed immediately for apoptosis or stored at −80° C. for subsequent Western blotting. Other methods and reagents were as described (Inoue (2004 Cell Death Differ 11 Suppl 2, S193-206); MacFarlane et al., 2005 ibid).
Apoptosis was quantified by phosphatidylserine (PS) externalization in the presence of propidium iodide as described (MacFarlane et al., 2002 ibid.). Samples for Western blot analysis were prepared and caspase processing detected as described (Inoue et al., 2004 ibid.; MacFarlane et al., 2005 ibid.).
Referring to FIG. 4: Ramos cells (A) and Jurkat cells (B) were cultured with increasing concentrations of Arg191Leu or Asn199Val single mutants of His-TRAIL ([…]) or His-TRAIL (500 ng/ml), ETR1 or ETR2 (1000 ng/ml) for 4 h. Apoptosis was quantified by measuring the % PS+ cells and results shown in FIG. 4 are the Mean±SEM of three independent experiments. Thus the biological importance TRAIL residues R191 and N199 in TRAIL-R1 selectivity is shown.

[2] = tested on: TRAIL DISC in Ramos cells; experiment: DISC analysis with biotinylated TRAIL in Ramos cells; conditions: biotinylated ligand 500 ng ml^−1, 30 min
Description: After exposure of the cells for 30 min, DISC complexes were isolated and analyzed for the indicated proteins by Western blotting. To provide an unstimulated receptor control (u/s), biotinylated wt or mutant TRAIL was added to lysate from untreated cells. C: Freshly isolated cells from patients with CLL were incubated for 16 h either alone or in the presence of depsipeptide (10 nM). […] The different symbols used indicate data from six individual patients and the solid line indicates the Mean.
Ramos or Jurkat cells (5×10^7 cells per treatment) were exposed to biotin-tagged recombinant His-TRAIL (biotinylated TRAIL) or one of its mutant forms (500 ng ml^−1) for 30 min and then DISC formation assessed as described previously (MacFarlane et al., 2002 ibid.).

receptor selectivity of apoptotic activity (in words) (TRAIL-R1 (DR4)): R1 selective apoptotic activity
B1: TRAIL.R1-5: 6His TRAIL 95-281 with 193Ser, 199Val, 201Arg, 213Trp and 215Asp (protein)
chain: TSEETISTVQEKQQNISPLVRERGPQRVAAHITGTRGRSNTLSSPNSKNEKALGRKINSWESSRSGHSFLSNLHLRNGELVIHEKGFYYIYSQTYFRFSEEIKEVTRNDKQMVQYIYKWTDYPDPILLMKSARNSCWSKDAEYGLYSIYQGGIFELKENDRIFVSVTNEHLIDMDHEASFFGAFLVG
modifications: biotin (site not stated) in the DISC analysis only; not biotinylated in the apoptosis assays
notes: 6His TRAIL 95-281 with 193Ser, 199Val, 201Arg, 213Trp and 215Asp
recruitment and processing of Caspase-8 at the DISC [1]: resulted in recruitment and processing Caspase-8 at the DISC
DISC formation: receptor bound, FADD and caspase-8 recruitment [2]: bound predominantly TRAIL-R1 together with a small amount of TRAIL-R2

Reference: patent US20090325867A1, “RECEPTOR-SPECIFIC TUMOUR NECROSIS FACTOR-RELATED APOPTOSIS-INDUCING LIGAND (TRAIL) VARIANTS” (MEDICAL RESEARCH COUNCIL, priority 2005, published 2009)
